Source: patent publication US20210340211A1 (UNIVERSITY OF COPENHAGEN, published 2021)
Ends that are not written are not given here.

T1: human GIP receptor (human, UniProt P48546 22-466)
T1 sequence (looked up): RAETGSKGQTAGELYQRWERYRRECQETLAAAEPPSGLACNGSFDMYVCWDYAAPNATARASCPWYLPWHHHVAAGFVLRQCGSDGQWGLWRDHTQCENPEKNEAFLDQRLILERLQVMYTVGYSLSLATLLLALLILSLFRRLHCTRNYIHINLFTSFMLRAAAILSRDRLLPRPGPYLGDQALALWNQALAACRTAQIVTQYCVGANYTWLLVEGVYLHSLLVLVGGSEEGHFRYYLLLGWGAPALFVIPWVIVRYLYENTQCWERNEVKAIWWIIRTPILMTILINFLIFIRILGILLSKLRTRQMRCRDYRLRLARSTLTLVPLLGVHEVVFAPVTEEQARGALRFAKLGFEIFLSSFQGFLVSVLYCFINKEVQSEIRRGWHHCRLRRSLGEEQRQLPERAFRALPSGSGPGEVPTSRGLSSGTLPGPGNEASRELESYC


Assays:
[1] = biological target: T1, human GIP receptor; assay: cell-based or functional assay
[2] = biological target: T1, human GIP receptor; assay: cell-based or functional assay; remark: listed apart in the source
[3] = biological target: T1, human GIP receptor; assay: competition binding vs 125I-GIP(1-42), COS-7 cells transfected with human GIP receptor
Procedure: (§1) Nonspecific binding was determined as the binding of radioligand to untransfected cells. All determinations were made in duplicates, and all experiments repeated at least three times. The samples were analyzed for radioactivity using a Wallac Wizard 1470 Gamma Counter (GMI Inc., Minnesota, USA). The number “n” refers to individual experiments with separate transfections although from same cell line.
(§2) Statistical analyses (unpaired t-tests) of two parameters were also performed with GraphPad Prism 6.0. […] Kd is the dissociation constant determined by homologous receptor binding.

[4] = biological target: T1, human GIP receptor; assay: competition binding vs 125I-GIP(1-30)NH2, COS-7 cells transfected with human GIP receptor
Procedure: as §1, §2

[5] = biological target: T1, human GIP receptor; assay: competition binding vs 125I-GIP(2-30)NH2, COS-7 cells transfected with human GIP receptor
Procedure: as §1, §2

[6] = biological target: T1, human GIP receptor; assay: homologous competition binding vs 125I-GIP(3-30)NH2, COS-7 cells transfected with human GIP receptor
Procedure: as §1

[7] = biological target: T1, human GIP receptor; assay: cell-based or functional assay; remark: listed apart in the source
[8] = biological target: T1, human GIP receptor; assay: competition binding vs 125I-hGIP, COS-7 cells transfected with hGIPR
Procedure: COS-7 cells were seeded in clear 96-well plates the day after transfection using a number of cells/well that obtained 5-10% specific binding of the added radioactive ligand. […] After incubation, the cells were washed twice in ice-cold binding buffer and lysed using 200 mM NaOH with 1% SDS for 30 min. Nonspecific binding was determined as the binding of tracer to untransfected cells.

[9] = biological target: T1, human GIP receptor; assay: competition binding vs 125I-GIP(3-30)NH2, COS-7 cells transfected with human GIP receptor
Procedure: as §1, §2

[10] = biological target: T1, human GIP receptor; assay: homologous competition binding vs 125I-GIP(2-30)NH2, COS-7 cells transfected with human GIP receptor
Procedure: as §1

Binder | IC50 (inhibition of GIP(1-42) induced cAMP accumulation) [2] [nM] | logIC50 (inhibition of GIP(1-42) induced cAMP accumulation) [2] | Ki [3] [nM] | fold change of GIP(1-30)NH2 affinity [3] [fold] | logIC [3] | Ki (Schild plot, cAMP accumulation) [7] [nM] | other results
EGTFISDYSIAMDKIHQQDFVNWLLAQK-NH2 (also called human GIP(3-30)NH2; hGIP(3-30)NH2) [GIP(3-30)NH2] | 11.8 | -7.93 | 2.3 | 2.6 | -8.63 | – | fold shift in the dose-response curve of human GIP(1-42) by 1 µM antagonist [1]: 281 fold; fold decrease in affinity compared to GIP(1-30)NH2 [3]: 2.3 fold; IC50 [4]: 4.4 nM; fold change GIP(1-30)NH2 [4]: 14.5 fold; log (IC50) [4]: -8.35; IC50 [5]: 0.76 nM; fold change GIP(1-30)NH2 [5]: 1.6 fold; log (IC50) [5]: -9.12; IC50 [6]: 3.4 nM; fold change GIP(1-30)NH2 [6]: 2 fold; log (IC50) [6]: -8.47
EGTFISDYSIAMDKIHQQDFVNWLLAQK (also called human GIP3-30) [hGIP(3-30)] | – | – | – | – | – | 15 | IC50 [8]: 16 nM
EGTFISDYSIAMDKIAQQDFVNWLLAQK (Synthetic variant of hGIP(3-30)) [hGIP(3-30)H18A] | – | – | – | – | – | 35 | IC50 [8]: 2 nM
EGTFISDYSIAMDKIKQQDFVNWLLAQK (Synthetic variant of hGIP(3-30)) [hGIP(3-30)H18K] | – | – | – | – | – | 37 | IC50 [8]: 7.8 nM
AEGTFISDYSIAMDKIHQQDFVNWLLAQK-NH2 (also called human GIP(2-30)NH2; hGIP(2-30)) [GIP(2-30)NH2] | 21.7 | -7.66 | 14.3 | 16 | -7.85 | – | fold lower potency than GIP(1-30)NH2 (cAMP accumulation) [1]: > 3000 fold; log EC50 (cAMP accumulation) [1]: -8.43; potency, EC50 (cAMP accumulation) [1]: 3.7 nM; IC50 [4]: 26 nM; fold change GIP(1-30)NH2 [4]: 84.3 fold; log (IC50) [4]: -7.59; IC50 [9]: 7.7 nM; fold change GIP(1-30)NH2 [9]: 4.6 fold; log (IC50) [9]: -8.11; IC50 [10]: 2.7 nM; fold change GIP(1-30)NH2 [10]: 10.5 fold; log (IC50) [10]: -8.57
SDYSIAMDKIHQQDFVNWLLAQK-NH2 (also called human GIP(8-30)NH2; hGIP(8-30)) [GIP(8-30)NH2] | 133 | -6.88 | 79 | 89 | -7.1 | – | –
DYSIAMDKIHQQDFVNWLLAQK-NH2 (also called human GIP(9-30)NH2; hGIP(9-30)) [GIP(9-30)NH2] | 450 | -6.35 | 307 | 345 | -6.51 | – | right-shift of antagonistic potency compared to GIP(3-30)NH2 [1]: 38 fold; fold lower affinity compared to GIP(1-30)NH2 [3]: > 300 fold
FISDYSIAMDKIHQQDFVNWLLAQK-NH2 (also called human GIP(6-30)NH2; hGIP(6-30)) [GIP(6-30)NH2] | 342 | -6.47 | 347 | 391 | -6.46 | – | fold decrease in affinity compared to GIP(1-30)NH2 [3]: 347 fold; fold lower affinity compared to GIP(1-30)NH2 [3]: > 300 fold; IC50 [4]: 1060 nM; fold change GIP(1-30)NH2 [4]: 3500 fold; log (IC50) [4]: -5.97; IC50 [5]: 340 nM; fold change GIP(1-30)NH2 [5]: 707 fold; log (IC50) [5]: -6.47; IC50 [9]: 370 nM; fold change GIP(1-30)NH2 [9]: 223 fold; log (IC50) [9]: -6.43
EGTFISDYSIAMDKIHQQDFVNWLLAQKGKKNDWKHNITQ [human GIP(3-42)] | – | – | – | – | – | – | fold lower antagonistic potency than human GIP(3-30)NH2 (cAMP accumulation) [1]: 26 fold; fold shift in the dose-response curve of human GIP(1-42) by 1 µM antagonist [1]: 7.3 fold

Further lines, with some results ahead:

IC50 (inhibition of GIP(1-42) induced cAMP accumulation) [2] [nM] | logIC50 (inhibition of GIP(1-42) induced cAMP accumulation) [2] | Ki [3] [nM] | fold change of GIP(1-30)NH2 affinity [3] [fold] | logIC [3] | Ki (Schild plot, cAMP accumulation) [7] [nM] | Binder | other results
11.9 | -7.92 | 5.9 | 6.6 | -8.23 | – | TFISDYSIAMDKIHQQDFVNWLLAQK-NH2 (also called human GIP(5-30)NH2; hGIP5-30) [GIP(5-30)NH2] | –
– | – | – | – | -7.58 | – | ISDYSIAMDKIHQQDFVNWLLAQK-NH2 (also called human GIP(7-30)NH2; hGIP(7-30)) [GIP(7-30)NH2] | –
– | – | – | – | – | 7.9 | EGTFISDYSIAMEKIAQQDFVNWLLAQK [hGIP(3-30)D15EH18A] | –
108 | -6.97 | 21.5 | 24 | -7.67 | – | GTFISDYSIAMDKIHQQDFVNWLLAQK-NH2 (also called human GIP(4-30)NH2; hGIP4-30) [GIP(4-30)NH2] | –
– | – | – | – | – | 15 | EGTFISDYSIAMDAIAQQDFVNWLLAQK [hGIP(3-30)K16AH18A] | –
